Data as given in IntAct's records for PubMed 12529446.

Target: gef1_schpo gef1 (UniProt Q09763)
Sequence (Q09763 whole entry): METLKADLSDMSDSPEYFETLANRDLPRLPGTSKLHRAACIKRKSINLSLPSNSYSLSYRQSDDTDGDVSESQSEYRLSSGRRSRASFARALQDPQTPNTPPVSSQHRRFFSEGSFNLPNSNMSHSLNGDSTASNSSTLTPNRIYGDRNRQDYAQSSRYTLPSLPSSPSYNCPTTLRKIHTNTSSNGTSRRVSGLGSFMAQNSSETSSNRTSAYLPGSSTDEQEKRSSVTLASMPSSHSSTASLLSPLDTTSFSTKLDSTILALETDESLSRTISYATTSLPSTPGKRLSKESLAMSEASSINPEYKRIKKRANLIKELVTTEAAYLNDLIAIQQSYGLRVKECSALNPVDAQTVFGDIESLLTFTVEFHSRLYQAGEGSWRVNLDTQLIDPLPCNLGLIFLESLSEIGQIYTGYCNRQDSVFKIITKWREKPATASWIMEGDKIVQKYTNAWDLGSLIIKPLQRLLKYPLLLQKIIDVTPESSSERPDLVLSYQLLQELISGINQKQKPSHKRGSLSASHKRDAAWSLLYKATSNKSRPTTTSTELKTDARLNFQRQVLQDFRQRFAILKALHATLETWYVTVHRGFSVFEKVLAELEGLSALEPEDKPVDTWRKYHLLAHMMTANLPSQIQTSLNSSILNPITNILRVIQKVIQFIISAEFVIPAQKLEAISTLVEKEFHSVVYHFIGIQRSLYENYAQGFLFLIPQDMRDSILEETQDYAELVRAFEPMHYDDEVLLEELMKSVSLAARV

Chain of Cell division control protein 42 homolog (Schizosaccharomyces pombe (strain ATCC 38366 / 972)), Q01112 D118A (Q01112 whole entry D118A): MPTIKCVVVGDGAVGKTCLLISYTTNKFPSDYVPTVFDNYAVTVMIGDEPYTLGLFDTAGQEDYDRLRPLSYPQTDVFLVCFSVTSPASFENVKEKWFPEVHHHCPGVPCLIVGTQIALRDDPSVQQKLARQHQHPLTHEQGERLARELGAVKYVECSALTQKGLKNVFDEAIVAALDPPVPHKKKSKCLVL
Chain of Cell division control protein 42 homolog (Schizosaccharomyces pombe (strain ATCC 38366 / 972)), Q01112 T17N (Q01112 whole entry T17N): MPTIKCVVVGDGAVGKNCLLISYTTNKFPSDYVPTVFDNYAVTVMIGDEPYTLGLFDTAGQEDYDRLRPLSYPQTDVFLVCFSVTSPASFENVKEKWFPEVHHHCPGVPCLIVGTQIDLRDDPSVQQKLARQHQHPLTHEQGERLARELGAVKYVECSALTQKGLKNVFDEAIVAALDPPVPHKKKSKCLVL

| Substance | effect of a mutation on the interaction |
| --- | --- |
| Cell division control protein 42 homolog (Schizosaccharomyces pombe (strain ATCC 38366 / 972)), Q01112 D118A | increasing interaction |
| Cell division control protein 42 homolog (Schizosaccharomyces pombe (strain ATCC 38366 / 972)), Q01112 T17N | increasing interaction |
